One block for each substance: values may come before it.
Legend:
[1] = target: CaM (source not told for this experiment) (UniProt P62157); assay: native gel or EMSA; native gel electrophoresis of the CaM/segment-A complex (Figure S5)
[2] = target: CaM (source not told for this experiment) (UniProt P62157); assay: native MS; 10 µM CaM and segment-A in 300 mM ammonium acetate pH 7.0; residual Ca2+ around 5 µM
[3] = target: CaM (bovine brain) (bovine) (UniProt P62157); assay: cross-linking; chemical cross-linking (BS3, DSBU 1 mM; s-GMBS in two steps) of CaM (bovine brain, 10 µM) with 10 µM segment-A; 20 mM HEPES, 230 mM NaCl, 0.5 mM TCEP, 7.5% glycerol, pH 7.2, 25 °C; 750 nM and 1 mM Ca2+; SDS-PAGE and LC-MS/MS
[4] = target: Photo-Met labeled CaM (UniProt P0DP23); assay: cross-linking; photo-cross-linking of photo-Met-labeled CaM (10 µM) with 10 µM segment-A, -B or -C; 20 mM HEPES, 250 mM NaCl, 0.5 mM TCEP, 7.5% glycerol, pH 7.2, 25 °C; free Ca2+ 75 nM to 1 mM (EGTA system); UV-A 360 nm; SDS-PAGE and LC-MS/MS
[5] = target: Photo-Met labeled CaM (UniProt P0DP23); assay: cross-linking; photo-cross-linking of photo-Met-labeled CaM with segment-B, SDS-PAGE analysis (data not shown)
[6] = target: biotinylated photo-Met-labeled CaM (UniProt P0DP23); assay: SPR; biotinylated photo-Met-CaM immobilised on streptavidin on a PEG-biotin chip; segment-C and variants injected at 0.1–1 µM in 20 mM HEPES, 230 mM NaCl, 0.5 mM TCEP, pH 7.2; 30 µL/min

- stoichiometry N (segment-A per CaM) [1]: 1
- stoichiometry N (segment-A per CaM) [2]: 1
- stoichiometry N (segment-A per CaM) [3]: 1
- stoichiometry N (segment-A per CaM) [4]: 1
Substance: bMunc13-2 segment-A (aa 367–780) (from UniProt Q62769-2 367-780) (domain or fragment)

- stoichiometry N (segment-B per CaM) [5]: 1
Substance: bMunc13-2 segment-B (aa 367–903) (from UniProt Q62769-2 367-903) (domain or fragment)

- Kd [6]: 159 nM
- stoichiometry N (segment-C per CaM) [4]: 1
Substance: bMunc13-2 segment-C (aa 703–742) (peptide)

Source: paper PMC7017353, “Delineating the Molecular Basis of the Calmodulin–bMunc13-2 Interaction by Cross-Linking/Mass Spectrometry—Evidence for a Novel CaM Binding Motif in bMunc13-2” (Cells, 2020)
